# Laboratory results published in patent publication US20240002498A1 (TENEOBIO, published 2024).
# B1: anti-FOLR1 heavy chain antibody (HCAb, UniAb) clone ID 358590 (antibody, V domains shown)
# VH: EVQLVESGGGLVQPGGSLRLSCAASGFTFSSYSMNWVRQAPGKGLEWVSYISSSSDTIEYADSVKGRFTISRDNAKNSLYLQMNSLRDEDTAVYYCASVGLDFDYRGQGTLVTVSS
# notes: Heavy chain-only antibody (no light chain), F18 family
# B2: anti-FOLR1 heavy chain antibody (HCAb, UniAb) clone ID 358624 (antibody, V domains shown)
# VH: EVQLVESGGGLVQPGGSLRLSCAASGFSFSSYSMKWVRQAPGKGLEWVSYISSSSDTIEYADSVKGRFTISRDNAKNSLYLQMNSLRDDDTAVYYCASVGLDFDYRGQGTLVTVSS
# notes: as for B1
# B3: anti-FOLR1 heavy chain antibody (HCAb, UniAb) clone ID 358656 (antibody, V domains shown)
# VH: EVQLVESGGGLVQPGGSLRLSCAASGFSFSSYSMNWVRQAPGKGLEWVSYISSSSDTIEYADSVKGRFTISRDNAKNSLYLQMNSLRDEDTAVYYCASVGLDFDYRGQGTLVTVSS
# notes: as for B1
# B4: anti-FOLR1 heavy chain antibody (HCAb, UniAb) clone ID 358608 (antibody, V domains shown)
# VH: EVQLVESGGGLVQPGGSLRLSCAASGFSFSSYSMKWVRQAPGKGLEWISYISGSSDTIEYADSVKGRFTISRDNAKNSLYLQMNSLRDEDTAVYYCASVGLDFDYRGQGTLVTVSS
# notes: as for B1
# B5: anti-FOLR1 heavy chain antibody (HCAb, UniAb) clone ID 358655 (antibody, V domains shown)
# VH: EVQLVESGGGLVQPGGSLRLSCAASGFTFSSYSMKWVRQAPGKGLEWISYISGSSDTIEYADSVKGRFTISRDNAKNSLYLQMNGLRDEDTAVYYCASVGLDFDYRGQGTLVTVSS
# notes: as for B1
# B6: anti-FOLR1 heavy chain antibody (HCAb, UniAb) clone ID 358626 (antibody, V domains shown)
# VH: EVQLVESGGGLVKPGGSLRLSCAASGFSFSSYSMKWVRQAPGKGLEWVSYISSSSDTIEYADSVKGRFTISRDNAKNSLYLQMNSLRDDDTAVYYCASVGLDFDYRGQGTLVTVSS
# notes: as for B1
# B7: anti-FOLR1 heavy chain antibody (HCAb, UniAb) clone ID 358596 (antibody, V domains shown)
# VH: EVQLVESGGGLVQPGGSLRLSCAASGFTFSSYSMKWVRQAPGKGLEWVSYIDSSSSIIEYADSVKGRFTISRDNAKNSLYLQMNSLRDEDTAVYYCASVGLDFDYRGQGTLVTVSS
# notes: as for B1
# B8: anti-FOLR1 heavy chain antibody (HCAb, UniAb) clone ID 358647 (antibody, V domains shown)
# VH: EVQLVESGGGLVQPGGSLRLSCAASGFSFSSYSMNWVRQAPGKGLEWISYISGSSDTIEYADSVKGRFTISRDNAKNSLYLQMNSLRAEDTAVYYCASVGLDFDYRGQGTLVTVSS
# notes: as for B1
# B9: anti-FOLR1 heavy chain antibody (HCAb, UniAb) clone ID 358393 (antibody, V domains shown)
# VH: EVQLVESGGGLVQPGGSLRLSCAASGFTFSSYSMNWARQAPGKGLEWVSYISSSSSSIYYADSVKGRFTISRDNAKNSLYLQMNSLRAEDTAVYYCARDVTSGIAAAGSAFNIRGQGTLVTVSS
# notes: Heavy chain-only antibody (no light chain), F14 family
# B10: anti-FOLR1 heavy chain antibody (HCAb, UniAb) clone ID 358420 (antibody, V domains shown)
# VH: EVQLVESGGGLVKPGGSLRLSCAASGFTFSSYSMNWVRQAPGKGLEWVSSISSGSSYIYYADSVKGRFTISRDNANNSLYLQMNSLRAEDTAVYFCARDVTSGIAAAGSAFNIRGQGTLVTVSS
# notes: as for B9
# B11: anti-FOLR1 heavy chain antibody (HCAb, UniAb) clone ID 358413 (antibody, V domains shown)
# VH: EVQLVESGGGLVQPGGSLRLSCAASGFSFSSYSMNWVRQAPGKGLEWVSSISSSSSYIYYADSVKGRFTISRDNSKNTLYLQMNSLRAEDTAVYYCARDVTSGIAAAGSAFNIRGQGTLVTVSS
# notes: as for B9
# B12: anti-FOLR1 heavy chain antibody (HCAb, UniAb) clone ID 358480 (antibody, V domains shown)
# VH: EVQLVESGGGLVKPGGSLRLSCAASGFTFSSYSMNWVRQAPGKGLEWVSSISSGSTYIYYADSVKGRFTISRDNAKNSLYLQMNSLRAEDTAVYYCARDVTSGIAAAGSAFNIRGQGTLVTVSS
# notes: as for B9
# B13: anti-FOLR1 heavy chain antibody (HCAb, UniAb) clone ID 358416 (antibody, V domains shown)
# VH: EVQLVESGGGLVKPGGSLRLSCAASGFTFSSYTMNWVRQAPGKGLEWVSSISSGSSYIYYADSVKGRFTISRDNAKNSLYLQMNSLRAEDTAVYYCARDVTSGIAAAGSAFNIRGQGTLVTVSS
# notes: as for B9
# B14: anti-FOLR1 heavy chain antibody (HCAb, UniAb) clone ID 358441 (antibody, V domains shown)
# VH: EVQLVESGGGLVQPGGSLRLSCAASGFSFSSYSMNWVRQAPGKGLEWVSSISSGSSYIYYADSVKGRFTISRDNAKNSLYLQMNSLRGEDTAVYYCARDVTSGIAAAGSAFNIRGQGTLVTVSS
# notes: as for B9
# B15: anti-FOLR1 heavy chain antibody (HCAb, UniAb) clone ID 358464 (antibody, V domains shown)
# VH: EVQLVESGGGLVQPGGSLRLSCAASGFTFSSYSMNWVRQAPGKGLEWVSYISSSSSTIYYADSVKGRFTISRDNAKNSLYLQMNSLRAEDTAVYYCARDVTSGIAAAGSAFNIRGQGTLVTVSS
# notes: as for B9
# B16: anti-FOLR1 heavy chain antibody (HCAb, UniAb) clone ID 358478 (antibody, V domains shown)
# VH: EVQLVESGGGLIQPGGSLRLSCAASGFIFSSYSMNWVRQAPGKGLEWVSYISSSSSYIYYADSVKGRFTISRDNAKNSLYLQMNSLRAEDTAVYYCARDVTSGIAAAGSAFNIRGQGTLVTVSS
# notes: as for B9
# B17: anti-FOLR1 heavy chain antibody (HCAb, UniAb) clone ID 358466 (antibody, V domains shown)
# VH: EVQLVESGGGLIQPGGSLRLSCAASGFTFSSYSMNWVRQAPGKGLEWVSSISSGSSYIYYADSVKGRFTISRDNAKNSLYLQMNSLRAEDTAVYYCARDVTSGIAAAGSAFNIRGQGTLVTVSS
# notes: as for B9
# B18: anti-FOLR1 heavy chain antibody (HCAb, UniAb) clone ID 358468 (antibody, V domains shown)
# VH: EVQLVESGGGLVKPGGSLRLSCAASGFTFSSYSMNWVRQAPGKGLEWVSSISSSSSYIYYADSVKGRFTISRDNAKNSLYLQMNSLRAEDTAVYYCARDVTSGIAAAGSAFNIRGQGTLVTVSS
# notes: as for B9
# B19: anti-FOLR1 heavy chain antibody (HCAb, UniAb) clone ID 358462 (antibody, V domains shown)
# VH: EVQLVESGGGLVQPGGSLRLSCAASGFTFSSYSMNWVRQAPGKGLEWVSSISSGSSYIYYADSVKGRFTISRDNAKNSLYLQMNSLRAEDTAVYYCARDVTSGIAAAGSAFNIRGQGTLVTVSS
# notes: as for B9
# B20: anti-FOLR1 heavy chain antibody (HCAb, UniAb) clone ID 358399 (antibody, V domains shown)
# VH: EVQLVESGGGLVKPGGSLRLSCVASGFTFSSYSMNWVRQAPGKGLEWVSSISSSSSYIYYADSVKGRFTISRDNAKNSLYLQMNSLRAEDTAVYYCARDVTSGIAAAGSAFNIRGQGTLVTVSS
# notes: as for B9
# B21: anti-FOLR1 heavy chain antibody (HCAb, UniAb) clone ID 358456 (antibody, V domains shown)
# VH: EVQLVESGGGLVKPGGSLRLSCAASGFIFSSYSMNWVRQAPGKGLEWVSSISSGSSYIYYADSVKGRFTISRDNAKNSLYLQMNSLRAEDTAVYFCARDVTSGIAAAGSAFNIRGQGTLVTVSS
# notes: as for B9
# B22: anti-FOLR1 heavy chain antibody (HCAb, UniAb) clone ID 358396 (antibody, V domains shown)
# VH: EVQLVESGGGLVKPGGSLRLSCAASGFTFSSYSMNWVRQAPGKGLEWVSSISSSSSYIYYADSVKGRFTISRDNAKNSLYLQMNSLRAEDTAVYFCARDVTSGIAAAGSAFNIRGQGTLVTVSS
# notes: as for B9
# B23: anti-FOLR1 heavy chain antibody (HCAb, UniAb) clone ID 358418 (antibody, V domains shown)
# VH: EVQLVESGGGLVQPGGSLRLSCAASGFTFSSYSMNWVRQAPGKGLEWVSSISSGSSYIYYADSVKGRFTISRDNAKNSLYLQMNSLRAEDTALYYCARDVTSGIAAAGSAFNIRGQGTLVTVSS
# notes: as for B9
# B24: anti-FOLR1 heavy chain antibody (HCAb, UniAb) clone ID 358452 (antibody, V domains shown)
# VH: EVQLVESGGGLVQPGGSLRLSCAASGFTFSSYSMNWVRQAPGKGLEWVASISSGSSDIYYADSVKGRFTISRDNAKNSLYLQMNSLRAEDTAVYYCARDVTSGIAAAGSAFNIRGQGTLVTVSS
# notes: as for B9
# B25: anti-FOLR1 heavy chain antibody (HCAb, UniAb) clone ID 358442 (antibody, V domains shown)
# VH: EVQLVESGGGLVKPGGSLRLSCAASGFTFSSYSMNWVRQAPGKGLEWVSYISSSSSYIYYADSVKGRFTISRDNAKNSLYLQMNSLRAEDTAVYYCARDVTSGIAAAGSAFNIRGQGTLVTVSS
# notes: as for B9
# B26: anti-FOLR1 heavy chain antibody (HCAb, UniAb) clone ID 358446 (antibody, V domains shown)
# VH: EVQLVESGGGLVKPGGSLRLSCAASGFIFSSYSMNWVRQAPGKGLEWVSSISSGSSYIYYADSVKGRFTISRDDAKNSLYLQMNSLRAEDTAVYFCARDVTSGIAAAGSAFNIRGQGTLVTVSS
# notes: as for B9
# B27: anti-FOLR1 heavy chain antibody (HCAb, UniAb) clone ID 358397 (antibody, V domains shown)
# VH: EVQLVESGGGLVKPRGSLRLSCEASGFTFSSYSMNWVRQAPGKGLEWVSSISSGSSYIYYADSVKGRFTISRDNAKNSLYLQMNSLRAEDTAVYYCARDVTSGIAAAGSAFNIRGQGTLVTVSS
# notes: as for B9
# Tests used:
# [1] = target: T1, human Folate Receptor Alpha (FOLR1) on cells (human, UniProt P15328 25-234); assay: flow cytometry, CHO cells stably expressing human FOLR1
# T1 construct: whole, on cells; Endogenous on IGROV-1, OVCAR-3, SKOV-3, HT-29 cells; transfected on CHO cells; the cell is named under assay; also called FRα; FRa
# T1 sequence (P15328 25-234): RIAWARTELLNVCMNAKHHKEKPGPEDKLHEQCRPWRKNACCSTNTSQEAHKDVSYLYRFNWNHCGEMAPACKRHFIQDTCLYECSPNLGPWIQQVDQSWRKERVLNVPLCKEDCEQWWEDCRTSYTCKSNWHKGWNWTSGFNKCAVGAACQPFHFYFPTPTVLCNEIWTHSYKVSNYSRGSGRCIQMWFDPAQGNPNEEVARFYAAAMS
# cyno FOLR1 on CHO cells = target: T2, cyno FOLR1 on CHO cells (cyno (Cynomolgus macaque), UniProt A0A2K5U044 25-234); assay: flow cytometry, CHO cells stably expressing cyno FOLR1
# T2 construct: whole, on cells; also called cyFOLR1
# T2 sequence (A0A2K5U044 entry or part of it): as the sequence (P15328 25-234) above, with I2T, W4R, R37K, A146P, H171Y counted along it
Binder,fold over background MFI [1] [fold over background],fold over background MFI (cyno FOLR1 on CHO cells) [fold over background]
B1,1570,21.8
B2,1670,933
B3,1410,21.7
B4,1280,535
B5,926,590
B6,1710,1060
B7,1960,1340
B8,920,3
B9,402,1.2
B10,1760,2260
B11,1810,497
B12,2140,1200
B13,1870,1820
B14,1900,2300
B15,2100,6.4
B16,427,1.1
B17,1600,2090
B18,1670,314
B19,2150,2580
B20,2010,330
B21,1870,2090
B22,1730,360
B23,1500,2080
B24,1840,1.7
B25,1600,1.2
B26,1270,1.5
B27,277,331
